# Measured values published in paper doi:10.1101/2024.05.17.594765.
# Where a chain is given by its changes, count along the chain named. Names and notes keep the numbering of the source.
# B1: C-terminally Halo-tagged VASP (VASP-Halo), P50552 L226A; I231A; L235A; R273E; R274E; R275E; K276E (protein)
# chain: SETVICSSRATVMLYDDGNKRWLPAGTGPQAFSRVQIYHNPTANSFRVVGRKMQPDQQVVINCAIVRGVKYNQATPNFHQWRDARQVWGLNFGSKEDAAQFAAGMASALEALEGGGPPPPPALPTWSVPNGPSPEEVEQQKRQQPGPSEHIERRVSNAGGPPAPPAGGPPPPPGPPPPPGPPPPPGLPPSGVPAAAHGAGGGPPPAPPLPAAQGPGGGGAGAPGAAAAAAGAKARKVSKQEEASGGPTAPKAESGRSGGGGLMEEMNAMLAEEEEATQVGEKTPKDESANQEEPEARVPAQSESVRRPWEKNSTTLPRMKSSSSVTTSETQPCTPSSSDYSDLQRVKQELLEEVKKELQKVKEEIIEAFVQELRKRGSP
# B2: m6; m1 VASP:L226A; VASP:I231A; VASP:L235A; VASP:R273E; VASP:R274E; VASP:R275E; VASP:K276E; zyxin:F75A; zyxin:F97A; zyxin:F108A; zyxin:F118A (protein)
# chain: B1 chain
# What was measured:
# [1] = biological target: T1, C-terminally Halo-tagged full-length zyxin (zyxin-Halo), Q15942; experiment: force reconstitution TIRF assay; conditions: chain shown with the change; images were acquired every 1 s; parent: est. 490; read off a plot
# T1 chain: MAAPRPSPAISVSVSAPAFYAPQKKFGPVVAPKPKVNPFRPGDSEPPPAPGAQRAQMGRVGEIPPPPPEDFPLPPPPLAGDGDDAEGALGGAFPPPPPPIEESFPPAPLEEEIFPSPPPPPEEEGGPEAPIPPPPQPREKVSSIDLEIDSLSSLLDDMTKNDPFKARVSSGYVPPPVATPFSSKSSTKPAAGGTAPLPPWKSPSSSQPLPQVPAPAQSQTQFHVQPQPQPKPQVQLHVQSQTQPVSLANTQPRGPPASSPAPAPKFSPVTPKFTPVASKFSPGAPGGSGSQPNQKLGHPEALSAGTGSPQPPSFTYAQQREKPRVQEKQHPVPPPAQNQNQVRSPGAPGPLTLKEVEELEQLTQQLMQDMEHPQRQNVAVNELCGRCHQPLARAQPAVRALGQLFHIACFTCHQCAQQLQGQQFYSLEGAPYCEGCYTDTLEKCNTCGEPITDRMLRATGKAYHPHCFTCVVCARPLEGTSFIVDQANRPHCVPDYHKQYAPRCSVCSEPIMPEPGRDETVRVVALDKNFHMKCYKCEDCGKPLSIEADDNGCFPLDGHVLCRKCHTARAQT
# [2] = biological target: T2, zyxin mutant deficient in recruiting VASP, F(75, 97, 108, 118)A, Halo-tagged, Q15942; experiment: force reconstitution TIRF assay; conditions: chain shown with the change; images were acquired every 1 s; parent: est. 490; read off a plot
# T2 chain: T1 chain with F71A, F93A, F104A, F114A
Binder,other: Number of Binding Events (mean) [1],other: Number of Binding Events (mean) [2]
B1,180,–
B2,–,30
